Assay [1] concerns the target Apt2-Flag fusion protein (human), O95372. Put plainly: native gel or EMSA. To be noted: remark: other sources report otherwise.
In assay [2] the target is Apt1-Flag fusion protein (human), O75608. Put plainly: native gel or EMSA. As to conditions: remark: other sources report otherwise.

B1: Apt2-Flag fusion protein, O95372 1-231 (enzyme)
chain: MCGNTMSVPLLTDAATVSGAERETAAVIFLHGLGDTGHSWADALSTIRLPHVKYICPHAPRIPVTLNMKMVMPSWFDLMGLSPDAPEDEAGIKKAAENIKALIEHEMKNGIPANRIVLGGFSQGGALSLYTALTCPHPLAGIVALSCWLPLHRAFPQAANGSAKDLAILQCHGELDPMVPVRFGALTAEKLRSVVTPARVQFKTYPGVMHSSCPQEMAAVKEFLEKLLPPV
Turning to B1, the stoichiometry N in assay [1] was determined as 2.

B2: Apt1-Flag fusion protein, O75608 1-230 (enzyme)
chain: MCGNNMSTPLPAIVPAARKATAAVIFLHGLGDTGHGWAEAFAGIRSSHIKYICPHAPVRPVTLNMNVAMPSWFDIIGLSPDSQEDESGIKQAAENIKALIDQEVKNGIPSNRIILGGFSQGGALSLYTALTTQQKLAGVTALSCWLPLRASFPQGPIGGANRDISILQCHGDCDPLVPLMFGSLTVEKLKTLVNPANVTFKTYEGMMHSSCQQEMMDVKQFIDKLLPPID
Take B2: in assay [2], the stoichiometry N is 2.

These data come from article PMC11975282.
